The values that follow come from publication PMC6294518, “Structural insights into the duplex DNA processing of TREX2” (Nucleic Acids Research, 2018).

By stoichiometry N is commonly meant the number of molecules, sites or subunits per partner or assembly.

Series [1] deals with T1, mTREX2 (Mus musculus, UniProt Q9R1A9 1-236).
T1 sequence: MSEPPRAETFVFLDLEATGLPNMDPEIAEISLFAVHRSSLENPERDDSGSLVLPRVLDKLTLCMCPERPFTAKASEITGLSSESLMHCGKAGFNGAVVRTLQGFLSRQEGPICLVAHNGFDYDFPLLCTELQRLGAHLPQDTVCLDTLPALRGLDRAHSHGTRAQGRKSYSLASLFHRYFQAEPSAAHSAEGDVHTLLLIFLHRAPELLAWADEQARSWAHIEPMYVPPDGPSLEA
In words: X-ray crystallography (2.7 A); 2 Mg2+ per active site; Co-crystallization: mTREX2 5-8 mg/ml (stock 50 mM Tris-HCl, 400 mM NaCl, pH 7.0) with DNA at molar ratio 1:1.2; crystallization conditions in Table S2 not in the material. To be noted: protein: recombinant; tags: pET28a vector, TALON-purified (His tag implied); chain copies: 2; hairpin; 3' overhang 2 nt.

Series [2] deals with T1, mTREX2. The series can be described thus: X-ray crystallography (1.9 A); 2 Mg2+ per active site; Co-crystallization: mTREX2 5-8 mg/ml (stock 50 mM Tris-HCl, 400 mM NaCl, pH 7.0) with DNA at molar ratio 1:1.2; crystallization conditions in Table S2 not in the material. Conditions: protein: recombinant; tags: pET28a vector, TALON-purified (His tag implied); chain copies: 2; hairpin; 1-nt unpaired 3' overhang, 4-nt unpaired 5' overhang; 2 DNAs per protein dimer.

Series [3] concerns the molecule itself. In words: crystal structure; apo-mTREX2 at 1.9 Å, one dimer in the asymmetric unit; a dimer is also seen in the Y-shaped DNA complex and the product (dCMP) complex.

Take GGCCCTCTTTAGGGCCTT (structured_DNA) [duplex DNA with 2-nt 3'-overhang (stem loop)]: the binding result in series [1] is listed as “binds”.
For the molecule TGCCAGGCCCTCTTTAGGGCCTT (structured_DNA) [Y-shaped DNA (23-nt stem loop)], the binding result in series [2] is “binds”.

B1: mouse TREX2 (three prime repair exonuclease 2) (enzyme)
chain: MSEPPRAETFVFLDLEATGLPNMDPEIAEISLFAVHRSSLENPERDDSGSLVLPRVLDKLTLCMCPERPFTAKASEITGLSSESLMHCGKAGFNGAVVRTLQGFLSRQEGPICLVAHNGFDYDFPLLCTELQRLGAHLPQDTVCLDTLPALRGLDRAHSHGTRAQGRKSYSLASLFHRYFQAEPSAAHSAEGDVHTLLLIFLHRAPELLAWADEQARSWAHIEPMYVPPDGPSLEA
notes: TREX2, three prime repair exonuclease 2, mouse; NCBI Gene ID 24102; Cloned into pET28a and purified on a TALON column; Homodimer in the crystal and by gel filtration; also called mTREX2; apo-mTREX2; source: E. coli BL21-CodonPlus (DE3)-Rosetta, purified (HiTrap TALON, HiTrap Q, Superdex 75)
In the case of B1, the “stoichiometry N” value in series [3] was 2.
